In patent US20260265381A1:

Legend:
[1] = molecular target: human HLA-G expressed on cells (JEG3 cells, natural; SKOV3 cells transfected with recombinant HLA-G) (human) (UniProt P17693); test: flow cytometry on JEG3 cells (natural HLA-G); isotype control; detection with goat anti-human IgG (H+L) Alexa 488
[2] = molecular target: human HLA-G expressed on cells (JEG3 cells, natural; SKOV3 cells transfected with recombinant HLA-G) (human) (UniProt P17693); test: flow cytometry on SKOV3 HLA-G cells (SKOV3 transfected with HLA-G); isotype control; detection with goat anti-human IgG (H+L) Alexa 488

MFI [1]: 57
MFI [2]: 78
Substance: Isotype (antibody)
